In CN114716554A (dated 2022):

Key:
[1] = target: T1, LILRB1 Protein, Human, Recombinant (ECD, His Tag), Sino Biological (human, UniProt Q8NHL6 24-461); test: ELISA, coated protein
T1 construct: extracellular domain; Bought recombinant protein with a His tag; also called LILRB1蛋白

[2] = target: T2, ILT4 Protein, Human, Recombinant (ECD, His Tag), Sino Biological (human, UniProt Q8N423 22-460); test: ELISA, coated protein
T2 construct: extracellular domain; Bought recombinant protein with a His tag; also called LILRB2蛋白

[3] = target: T3, LILRB3 Protein, Human, Recombinant (ECD, His Tag), Sino Biological (human, UniProt O75022 24-443); test: ELISA, coated protein
T3 construct: extracellular domain; Bought recombinant protein with a His tag; also called LILRB3蛋白

[4] = target: T4, LILRB5/CD85c Protein, Human, Recombinant (ECD, His Tag), Sino Biological (human, UniProt O75023 24-458); test: ELISA, coated protein
T4 construct: extracellular domain; Bought recombinant protein with a His tag; also called LILRB5蛋白

[5] = target: T5, LILRB4 on LILRB4阳性细胞THP-1 (human, UniProt Q8NHJ6 22-448); test: flow cytometry on THP-1 cells
T5 construct: whole, on cells; also called LILRB4阳性肿瘤细胞THP-1; 人单核白血病细胞THP-1

[6] = target: T6, Human LILRB4/CD85k/ILT3 Protein (ECD, His Tag), Sino Biological (human, UniProt Q8NHJ6 22-259); test: ELISA, coated LILRB4 ECD-His, antibody titrated
T6 construct: extracellular domain; Bought recombinant protein with a His tag; also called 人LILRB4蛋白; LILRB4蛋白

T3 sequence (O75022 24-443): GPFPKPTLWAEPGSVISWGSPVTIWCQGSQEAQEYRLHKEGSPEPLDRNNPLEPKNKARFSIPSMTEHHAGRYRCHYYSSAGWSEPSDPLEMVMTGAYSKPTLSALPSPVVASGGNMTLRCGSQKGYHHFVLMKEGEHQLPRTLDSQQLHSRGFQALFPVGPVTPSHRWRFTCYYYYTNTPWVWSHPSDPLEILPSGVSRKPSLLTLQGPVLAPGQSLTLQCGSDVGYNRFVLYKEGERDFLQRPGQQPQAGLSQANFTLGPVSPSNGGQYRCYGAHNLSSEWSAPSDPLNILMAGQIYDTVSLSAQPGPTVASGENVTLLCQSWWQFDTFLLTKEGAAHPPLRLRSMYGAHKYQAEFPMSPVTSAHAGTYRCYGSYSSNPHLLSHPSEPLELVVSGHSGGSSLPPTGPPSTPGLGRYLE
T2 sequence (Q8N423 22-460): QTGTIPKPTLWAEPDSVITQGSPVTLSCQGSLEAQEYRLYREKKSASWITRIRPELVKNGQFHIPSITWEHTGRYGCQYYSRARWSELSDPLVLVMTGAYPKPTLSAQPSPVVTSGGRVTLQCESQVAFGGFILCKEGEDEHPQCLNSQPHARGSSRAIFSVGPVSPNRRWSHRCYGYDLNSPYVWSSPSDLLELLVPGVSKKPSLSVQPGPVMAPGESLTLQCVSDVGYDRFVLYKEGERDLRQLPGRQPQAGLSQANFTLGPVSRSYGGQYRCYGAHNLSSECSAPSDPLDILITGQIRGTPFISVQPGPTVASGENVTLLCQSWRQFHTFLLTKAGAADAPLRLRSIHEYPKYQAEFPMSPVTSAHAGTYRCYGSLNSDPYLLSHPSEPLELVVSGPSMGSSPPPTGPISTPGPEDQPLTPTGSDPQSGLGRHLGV
T4 sequence (O75023 24-458): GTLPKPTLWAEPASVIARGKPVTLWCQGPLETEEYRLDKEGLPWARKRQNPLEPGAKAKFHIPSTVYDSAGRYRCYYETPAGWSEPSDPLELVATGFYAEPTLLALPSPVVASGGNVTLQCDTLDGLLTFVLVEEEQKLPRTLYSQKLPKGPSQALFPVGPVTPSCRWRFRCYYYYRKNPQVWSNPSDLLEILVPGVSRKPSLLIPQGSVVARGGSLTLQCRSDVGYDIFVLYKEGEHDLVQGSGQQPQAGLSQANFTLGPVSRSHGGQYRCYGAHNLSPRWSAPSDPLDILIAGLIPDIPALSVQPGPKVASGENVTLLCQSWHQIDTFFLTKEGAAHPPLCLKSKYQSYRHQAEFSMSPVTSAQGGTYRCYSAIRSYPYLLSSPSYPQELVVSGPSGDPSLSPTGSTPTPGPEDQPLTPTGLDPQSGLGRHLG
T1 sequence (Q8NHL6 24-461): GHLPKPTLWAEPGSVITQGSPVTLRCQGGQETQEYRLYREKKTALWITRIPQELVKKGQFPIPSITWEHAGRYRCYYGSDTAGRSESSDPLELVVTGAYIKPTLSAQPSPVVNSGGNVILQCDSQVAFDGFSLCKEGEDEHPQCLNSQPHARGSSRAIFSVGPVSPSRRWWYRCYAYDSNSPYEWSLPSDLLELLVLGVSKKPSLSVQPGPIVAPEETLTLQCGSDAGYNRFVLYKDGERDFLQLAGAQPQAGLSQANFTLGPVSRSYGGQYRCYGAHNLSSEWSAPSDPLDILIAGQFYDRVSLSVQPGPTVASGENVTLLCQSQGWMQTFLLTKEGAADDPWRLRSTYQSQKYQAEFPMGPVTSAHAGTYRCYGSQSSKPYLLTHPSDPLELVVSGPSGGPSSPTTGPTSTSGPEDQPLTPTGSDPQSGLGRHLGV

B1: 全人源抗体2B9 (antibody, V domains shown)
VH: EVQLVQSGGGLIQPGGSLRLSCAASGFTVSSNYMSWVRQAPGKGLEWVSVIYSGGSTYYADSVKGRFTISRDNSKNTLYLQMNSLRAEDTAVYYCAKGATGGHDAFDIWGQGTTVTVSS
VL: not shown
notes: Fully human antibody from a phage library, made as a whole antibody in CHO-S cells; IgG4 heavy chain constant region, Ig kappa light chain
binding result [1]: no binding (tested: 10 μg/mL) | binding result [2]: no binding (tested: 10 μg/mL) | binding result [3]: no binding (tested: 10 μg/mL) | binding result [4]: no binding (tested: 10 μg/mL) | binding result [5]: binds | binding result [6]: binds
